According to patent US20260069689A1 (Regeneron, published 2026):

B1: mAb14282 (antibody, V domains shown)
VH: QVQLVQSGAEVKKPGASVKVSCKASGYIFTDHYMHWVRQAPGQGLEWMGWINPNSGATNYAQNFQGRVTMTRDTSIITVYMELSRLRSDDTAVYYCARDSSPYMIRYTMDVWGQGTTITVSS
VL: QSALTQPASVSGSPGQSITISCTGTSSDVGSYNLVSWYQQHPGKAPKLMIYELTKRPSGVSNRFSGSKSGNTASLTISGLQAEDEADYYCSSYRGSVTDVVFGGGTKLTVLG
B2: mAb14280 (antibody, V domains shown)
VH: QVQLVQSGAEVKKPGASVRVSCKASGYTFTGNYIHWVRQAPGQGLEWMAWINPNSGGKNYAQKFQGRVTLTRDTSVNTAYMELSRLRSDDTAMYYCARDVNYNILTGPGGLWGQGTLVTVSS
VL: QSALTQPPSASGSPGQSVTISCTGTSSDVGGYNFVSWYQQHPGKAPKLMIYEVSKRPSGVPDRFSGSKSGNTASLTVSGLQAEDEADYYCSSYAGSNNFVFGTGTKVTVLG
B3: mAb14256 (antibody, V domains shown)
VH: QVQLQESGPGLVKPSETLSLTCTVSGGSISSHYWSWIRQPPGKGLEWIGYIYYSGSSNYNPSLKSRVTISVDTSKNQFSLKLNSVTAADTAVYYCARHYDILTGFDWFDPWGQGTLVTVSS
VL: QSVLTQPPSVSGAPGQRVTISCTGSSSNIGTHYDVHWYQQLPGTAPKLLIYGNSNRPSGVPDRFSGSKSGTSASLAITGLQAEDEADYYCQSFDNSLTAPYVFGTGTKVTVLG
B4: mAb14285 (antibody, V domains shown)
VH: QVQLVQSGAEVKKPGASVKVSCKASGYTFTGYFIHWVRQAPGQGLEWMGWISPISGGTNYAQKFQGRVTVTRDTSITTAYMELSRLTSDDTAVYHCAREGGTWKGDFDYWGQGTLVTVSS
VL: QSALTQPASVSGSPGQSITISCTGTSSDVESYNLVSWYQQHPGKAPKLMIYEGSKRPSGVSNRFSGSKSGNTASLTISGLQAEDEADYYCSSYAGSSTWVFGGGTKLTVLG
B5: mAb14281 (antibody, V domains shown)
VH: QVQLVQSGADVKKPGASVKVSCKTSGYIFTGYYIHWVRQAPGQGLEWMGWINPNSGGTNSAQKFQGRVTMTRDTSISTVYMELSRLRSDDTAVYYCAKSNSFSVLDYNFDYWGQGTLVTVSS
VL: SSELTQDPAVSVALGQTVRITCQGDSLRSYYASWYQQKPGQAPVLVIYDKNNRPSGIPDRFSGSSSGNTASLTITGAQAEDEADYYCNSRDSSRNHLVVFGGGTKLTVLG
B6: mAb14230 (antibody, V domains shown)
VH: EVQLVESGGGLIQPGRSLRLSCAASGFTFDDYAMHWVRQAPGKGLEWVSGISWNSVSIDYADSVKGRFTISRDNAKNSLYLQMTSLTVEDTALYYCAKAFGYETLTGSDYFAYWGPGTLVTVSS
VL: EIVLTQSPGTLSLSPGERATLSCRASQTVISTYLAWYQQKPGQSPRLLIYGASSRATGIPDRFSGSGSGTDFTLTISRLEPEDFAVYYCQQYGSSPQLTFGGGTKVEIKR
B7: mAb14286 (antibody, V domains shown)
VH: QVQLVQSGAEVKKPGASVKVSCKASGYTFTDYFIHWVRQAPGQGLEWMGWINPTSGGTNYAQKFRGRVTMTRDTSISTAYVELSRLRSDDTALYYCARDLPFYSDTKQFDYWGQGTLVTVSS
VL: QSALTQPASVSGYPGQSITISCTGTSSDVGGYNYVSWYQQHPGKAPKLMIFDVSNRPSGVSNRFSGSKSGNTASLTFSGLQAEDEADYYCSSYTSSSTLVFGGGTKLTVLG

Biological target: SARS-COV-2 RBD extracellular domain expressed with a C-terminal myc-myc-hexahistidine tag (SARS-COV-2 RBD-mmH) (SARS-CoV-2)
Test: SPR Biacore, mAb captured on anti-hFc, RBD-mmH analyte, 37 C

Binder | Kd [nM] | koff [s⁻¹] | kon [M⁻¹ s⁻¹] | t½ [min]
B1 | 5.37 | 0.0106 | 1.98e+06 | 1.1
B2 | 16.2 | 0.0248 | 1.53e+06 | 0.5
B3 | 8.24 | 0.0115 | 1.4e+06 | 1
B4 | 13.1 | 0.0274 | 2.09e+06 | 0.4
B5 | 5.2 | 0.00582 | 1.12e+06 | 2
B6 | 7.61 | 0.00876 | 1.15e+06 | 1.3
B7 | 3.07 | 0.0104 | 3.38e+06 | 1.1
